Experiments:
Rhodamine-LRRA(pS)LG = system: T1, Rhodamine-LRRA(pS)LG
T1 sequence: LRRASLG

[1] = system: myelin basic protein (MBP)
Rhodamine-LRRASLG = system: T2, Rhodamine-LRRASLG
T2 sequence: LRRASLG

biotin-LRRASLG = system: T3, biotin-LRRASLG
T3 sequence: LRRASLG

[2] = biological target: T4, protein tyrosine phosphatase 1B (PTP-1B) (Homo sapiens, UniProt P18031); assay: Protein tyrosine phosphatase 1B (PTP-1B) metal ion mediated superquenching assay, inhibition; type: biochemical; conditions: inhibitor curve; FIG. 7
T4 construct: purchased Biomol
T4 sequence (P18031 1-435): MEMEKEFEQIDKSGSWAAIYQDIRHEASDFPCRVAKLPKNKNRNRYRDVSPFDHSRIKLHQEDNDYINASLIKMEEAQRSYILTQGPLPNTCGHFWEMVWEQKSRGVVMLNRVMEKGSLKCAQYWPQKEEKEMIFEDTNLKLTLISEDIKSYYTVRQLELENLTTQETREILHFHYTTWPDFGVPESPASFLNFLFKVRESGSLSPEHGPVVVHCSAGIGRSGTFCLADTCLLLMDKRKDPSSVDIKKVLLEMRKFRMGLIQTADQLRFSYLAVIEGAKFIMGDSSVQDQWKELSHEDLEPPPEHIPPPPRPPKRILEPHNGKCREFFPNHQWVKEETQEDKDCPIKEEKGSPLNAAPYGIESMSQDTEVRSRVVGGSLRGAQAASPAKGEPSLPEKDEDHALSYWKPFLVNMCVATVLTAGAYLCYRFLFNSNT
Method: For detection of phosphatase activity:
Recombinant PKA was purchased from Promega. […] Polystyrene amine functionalized beads were obtained from Interfacial Dynamics.
The format was tested for detection of protein tyrosine phosphatase activity 1B (PTP-1B) on a peptide substrate of different length and sequence composition than the one used for PKA.

## Trypsin
Rhodamine-LRRA(pS)LG
  Sample (sensor fluorescence after trypsin reaction): 42100
  Signal Increase: 34400
  Signal/Background: 5.42

## kinase PKCα
[1]
  blocking kinase assay (fluorescence turn-on): The resulting fluorescence correlates with the extent of mbp phosphorylation

## Recombinant Protein Kinase A (PKA)
Rhodamine-LRRASLG
  endpoint measurement of PKA enzyme activity (polymer quench): an increase in polymer quench correlates with enzyme concentration
biotin-LRRASLG
  two-step PKA endpoint assay (fluorescence quench): the assays perform using either synthetic substrates with an N-terminal quencher or using biotinylated substrates to which a streptavidin-fluorescein conjugate is added

## CCCCCCCCCCCCCCCC(=O)C1=C(O)C(CO)OC1=O (stereo not shown) [RK-682]
[2]
  IC50: 26.4 nM

Reference: patent US20070238143A1, “Metal ion mediated fluorescence superquenching assays, kits and reagents” (priority 2003, published 2007)
